Data taken from paper PMC10539519, “Computational remodeling of an enzyme conformational landscape for altered substrate selectivity” (Nature Communications, 2023).

T1: E. coli aspartate aminotransferase (AAT) (Escherichia coli, UniProt P00509)
T1 construct: gene aspC; full-length, N-terminal His-tag, expressed in E. coli BL21-Gold (DE3), Ni-NTA purified; 90 kDa homodimer, PLP-dependent
T1 sequence (P00509 1-396): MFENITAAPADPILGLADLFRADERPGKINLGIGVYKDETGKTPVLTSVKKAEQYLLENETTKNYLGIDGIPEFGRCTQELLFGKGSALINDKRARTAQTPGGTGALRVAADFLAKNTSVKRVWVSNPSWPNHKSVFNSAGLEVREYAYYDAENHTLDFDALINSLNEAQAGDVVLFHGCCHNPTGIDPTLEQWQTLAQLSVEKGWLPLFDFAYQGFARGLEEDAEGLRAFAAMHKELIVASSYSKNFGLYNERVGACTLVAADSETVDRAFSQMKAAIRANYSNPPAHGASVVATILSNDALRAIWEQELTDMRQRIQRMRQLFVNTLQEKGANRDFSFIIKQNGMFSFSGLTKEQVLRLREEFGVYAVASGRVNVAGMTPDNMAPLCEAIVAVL


Tests used:
[1] = biological target: T1, E. coli aspartate aminotransferase (AAT); test: room-temperature X-ray crystallography; format: binding
purified protein [2] = substrate: N[C@@H](CC(=O)O)C(=O)O; test: purified protein; settings: co-substrate α-ketoglutarate (fixed, 0.1563–1.25 mM range), 16 µM PLP, 5 mM NAD+, 100 mM potassium phosphate pH 8, 37 °C
purified protein [3] = substrate: O=C(O)CCC(=O)C(=O)O; test: purified protein; format: biochemical, Escherichia coli; settings: α-ketoglutarate varied 0.002–20 mM, co-substrate 10–20 mM L-aspartate or L-phenylalanine, substrate inhibition, 16 µM PLP, pH 8, 37 °C
purified protein [4] = substrate: N[C@@H](Cc1ccccc1)C(=O)O; test: purified protein; format: biochemical, Escherichia coli; settings: co-substrate α-ketoglutarate (fixed, 0.1563–1.25 mM range), 16 µM PLP, 5 mM NAD+, 100 mM potassium phosphate pH 8, 37 °C
[5] = biological target: the molecule itself; test: crystal structure; X-ray crystallography, space group P 6_(3), two chains in the asymmetric unit; crystals grown with 20 mM maleate and ammonium sulfate, with or without soaking to remove maleate; data at 278 K (AIFS at 100 K; WT, HEX, VFIT also at 303 K)

| Molecule | room-temperature X-ray crystallography ([1]; covalent internal aldimine with K246, 10 µM PLP in crystallisation) | room-temperature X-ray crystallography ([1]; co-crystallised with 20 mM maleate, 278 K, contacts Arg280 and Arg374, closed conformation) | Km (purified protein [2]) [µM] | kcat (purified protein [2]) [s⁻¹] | kcat/Km (purified protein [2]) [M⁻¹ s⁻¹] | Km (purified protein [3]) [µM] | kcat (purified protein [3]) [s–1] | Km (purified protein [4]) [µM] | kcat (purified protein [4]) [s⁻¹] | kcat/Km (purified protein [4]) [M⁻¹ s⁻¹] | stoichiometry N [5] |
| --- | --- | --- | --- | --- | --- | --- | --- | --- | --- | --- | --- |
| Cc1ncc(COP(=O)(O)O)c(C=O)c1O [pyridoxal phosphate] | Restraints for PLP in its internal aldimine form were generated using phenix.elbow | – | – | – | – | – | – | – | – | – | – |
| O=C(O)/C=C\C(=O)O [maleate] | – | electrostatic interactions between maleate and the side chains of Arg280 and Arg374 | – | – | – | – | – | – | – | – | – |
| E. coli aspartate aminotransferase (AAT) (Escherichia coli K-12) (protein, full-length, N-terminal His-tag, expressed in E. coli BL21-Gold (DE3), Ni-NTA purified; 90 kDa homodimer, PLP-dependent) MFENITAAPADPILGLADLFRADERPGKINLGIGVYKDETGKTPVLTSVKKAEQYLLENETTKNYLGIDGIPEFGRCTQELLFGKGSALINDKRARTAQTPGGTGALRVAADFLAKNTSVKRVWVSNPSWPNHKSVFNSAGLEVREYAYYDAENHTLDFDALINSLNEAQAGDVVLFHGCCHNPTGIDPTLEQWQTLAQLSVEKGWLPLFDFAYQGFARGLEEDAEGLRAFAAMHKELIVASSYSKNFGLYNERVGACTLVAADSETVDRAFSQMKAAIRANYSNPPAHGASVVATILSNDALRAIWEQELTDMRQRIQRMRQLFVNTLQEKGANRDFSFIIKQNGMFSFSGLTKEQVLRLREEFGVYAVASGRVNVAGMTPDNMAPLCEAIVAVL | – | – | 210 ± 30 | 7.8 | 37000 ± 5000 | 65 ± 5 | 12.2 ± 0.3 | – | – | – | – |
| E. coli aspartate aminotransferase (AAT) (Escherichia coli K-12; K37F/N64T/T43I) (protein, full-length, N-terminal His-tag, expressed in E. coli BL21-Gold (DE3), Ni-NTA purified; 90 kDa homodimer, PLP-dependent) MFENITAAPADPILGLADLFRADERPGKINLGIGVYFDETGKIPVLTSVKKAEQYLLENETTKTYLGIDGIPEFGRCTQELLFGKGSALINDKRARTAQTPGGTGALRVAADFLAKNTSVKRVWVSNPSWPNHKSVFNSAGLEVREYAYYDAENHTLDFDALINSLNEAQAGDVVLFHGCCHNPTGIDPTLEQWQTLAQLSVEKGWLPLFDFAYQGFARGLEEDAEGLRAFAAMHKELIVASSYSKNFGLYNERVGACTLVAADSETVDRAFSQMKAAIRANYSNPPAHGASVVATILSNDALRAIWEQELTDMRQRIQRMRQLFVNTLQEKGANRDFSFIIKQNGMFSFSGLTKEQVLRLREEFGVYAVASGRVNVAGMTPDNMAPLCEAIVAVL | – | – | 27 ± 3 | 0.9 | 33000 ± 4000 | – | – | 900 ± 60 | 22.8 ± 0.4 | 25000 ± 2000 | – |
| wild-type E. coli aspartate aminotransferase (enzyme, imine bond between PLP and K246 (internal aldimine), aspartate aminotransferase (AAT), Escherichia coli, UniProt P00509; Gene with N-terminal His-tag in pET-45b; also called AAT; WT; source: E. coli BL21-Gold (DE3), purified (Ni-NTA, gel filtration)) MFENITAAPADPILGLADLFRADERPGKINLGIGVYKDETGKTPVLTSVKKAEQYLLENETTKNYLGIDGIPEFGRCTQELLFGKGSALINDKRARTAQTPGGTGALRVAADFLAKNTSVKRVWVSNPSWPNHKSVFNSAGLEVREYAYYDAENHTLDFDALINSLNEAQAGDVVLFHGCCHNPTGIDPTLEQWQTLAQLSVEKGWLPLFDFAYQGFARGLEEDAEGLRAFAAMHKELIVASSYSKNFGLYNERVGACTLVAADSETVDRAFSQMKAAIRANYSNPPAHGASVVATILSNDALRAIWEQELTDMRQRIQRMRQLFVNTLQEKGANRDFSFIIKQNGMFSFSGLTKEQVLRLREEFGVYAVASGRVNVAGMTPDNMAPLCEAIVAVL | – | – | – | – | – | – | – | – | – | – | 2 |
| E. coli aspartate aminotransferase (AAT) (Escherichia coli K-12; K37F/N64S/T43C) (protein, full-length, N-terminal His-tag, expressed in E. coli BL21-Gold (DE3), Ni-NTA purified; 90 kDa homodimer, PLP-dependent) MFENITAAPADPILGLADLFRADERPGKINLGIGVYFDETGKCPVLTSVKKAEQYLLENETTKSYLGIDGIPEFGRCTQELLFGKGSALINDKRARTAQTPGGTGALRVAADFLAKNTSVKRVWVSNPSWPNHKSVFNSAGLEVREYAYYDAENHTLDFDALINSLNEAQAGDVVLFHGCCHNPTGIDPTLEQWQTLAQLSVEKGWLPLFDFAYQGFARGLEEDAEGLRAFAAMHKELIVASSYSKNFGLYNERVGACTLVAADSETVDRAFSQMKAAIRANYSNPPAHGASVVATILSNDALRAIWEQELTDMRQRIQRMRQLFVNTLQEKGANRDFSFIIKQNGMFSFSGLTKEQVLRLREEFGVYAVASGRVNVAGMTPDNMAPLCEAIVAVL | – | – | 68 ± 7 | 6 | 88000 ± 9000 | – | – | 12000 ± 1000 | 87 ± 3 | 7200 ± 700 | – |
| E. coli aspartate aminotransferase (AAT) (Escherichia coli K-12; K37Y/N285S/N64L/T104S/T43I/V35L) (protein, full-length, N-terminal His-tag, expressed in E. coli BL21-Gold (DE3), Ni-NTA purified; 90 kDa homodimer, PLP-dependent) MFENITAAPADPILGLADLFRADERPGKINLGIGLYYDETGKIPVLTSVKKAEQYLLENETTKLYLGIDGIPEFGRCTQELLFGKGSALINDKRARTAQTPGGSGALRVAADFLAKNTSVKRVWVSNPSWPNHKSVFNSAGLEVREYAYYDAENHTLDFDALINSLNEAQAGDVVLFHGCCHNPTGIDPTLEQWQTLAQLSVEKGWLPLFDFAYQGFARGLEEDAEGLRAFAAMHKELIVASSYSKNFGLYNERVGACTLVAADSETVDRAFSQMKAAIRANYSSPPAHGASVVATILSNDALRAIWEQELTDMRQRIQRMRQLFVNTLQEKGANRDFSFIIKQNGMFSFSGLTKEQVLRLREEFGVYAVASGRVNVAGMTPDNMAPLCEAIVAVL | – | – | 59 ± 7 | 1.32 | 22000 ± 3000 | – | – | 270 ± 30 | 9 ± 0.2 | 33000 ± 4000 | – |
| E. coli aspartate aminotransferase (AAT) (Escherichia coli K-12; K37I/N64S/T43F/V35A) (protein, full-length, N-terminal His-tag, expressed in E. coli BL21-Gold (DE3), Ni-NTA purified; 90 kDa homodimer, PLP-dependent) MFENITAAPADPILGLADLFRADERPGKINLGIGAYIDETGKFPVLTSVKKAEQYLLENETTKSYLGIDGIPEFGRCTQELLFGKGSALINDKRARTAQTPGGTGALRVAADFLAKNTSVKRVWVSNPSWPNHKSVFNSAGLEVREYAYYDAENHTLDFDALINSLNEAQAGDVVLFHGCCHNPTGIDPTLEQWQTLAQLSVEKGWLPLFDFAYQGFARGLEEDAEGLRAFAAMHKELIVASSYSKNFGLYNERVGACTLVAADSETVDRAFSQMKAAIRANYSNPPAHGASVVATILSNDALRAIWEQELTDMRQRIQRMRQLFVNTLQEKGANRDFSFIIKQNGMFSFSGLTKEQVLRLREEFGVYAVASGRVNVAGMTPDNMAPLCEAIVAVL | – | – | 320 ± 30 | 2.42 | 7600 | – | – | 2600 ± 200 | 0.54 ± 0.01 | 210 ± 20 | – |
| E. coli aspartate aminotransferase hexamutant HEX (enzyme, imine bond between PLP and K246 (internal aldimine), aspartate aminotransferase (AAT), Escherichia coli, UniProt P00509, with six mutations; T104S and N285S are T109S and N297S in the numbering of PDB 1AHE and 1AHY; Mutant genes were ligated into pET-11a; the proteins were purified on Ni-NTA; source: E. coli BL21-Gold (DE3), purified (Ni-NTA, gel filtration)) MFENITAAPADPILGLADLFRADERPGKINLGIGLYYDETGKIPVLTSVKKAEQYLLENETTKLYLGIDGIPEFGRCTQELLFGKGSALINDKRARTAQTPGGSGALRVAADFLAKNTSVKRVWVSNPSWPNHKSVFNSAGLEVREYAYYDAENHTLDFDALINSLNEAQAGDVVLFHGCCHNPTGIDPTLEQWQTLAQLSVEKGWLPLFDFAYQGFARGLEEDAEGLRAFAAMHKELIVASSYSKNFGLYNERVGACTLVAADSETVDRAFSQMKAAIRANYSSPPAHGASVVATILSNDALRAIWEQELTDMRQRIQRMRQLFVNTLQEKGANRDFSFIIKQNGMFSFSGLTKEQVLRLREEFGVYAVASGRVNVAGMTPDNMAPLCEAIVAVL | – | – | – | – | – | – | – | – | – | – | 2 |
| E. coli aspartate aminotransferase (AAT) (Escherichia coli K-12; K37F/N64Y/T43I) (protein, full-length, N-terminal His-tag, expressed in E. coli BL21-Gold (DE3), Ni-NTA purified; 90 kDa homodimer, PLP-dependent) MFENITAAPADPILGLADLFRADERPGKINLGIGVYFDETGKIPVLTSVKKAEQYLLENETTKYYLGIDGIPEFGRCTQELLFGKGSALINDKRARTAQTPGGTGALRVAADFLAKNTSVKRVWVSNPSWPNHKSVFNSAGLEVREYAYYDAENHTLDFDALINSLNEAQAGDVVLFHGCCHNPTGIDPTLEQWQTLAQLSVEKGWLPLFDFAYQGFARGLEEDAEGLRAFAAMHKELIVASSYSKNFGLYNERVGACTLVAADSETVDRAFSQMKAAIRANYSNPPAHGASVVATILSNDALRAIWEQELTDMRQRIQRMRQLFVNTLQEKGANRDFSFIIKQNGMFSFSGLTKEQVLRLREEFGVYAVASGRVNVAGMTPDNMAPLCEAIVAVL | – | – | 120 ± 10 | 0.263 | 2200 | – | – | 420 ± 40 | 17.3 ± 0.4 | 41000 ± 4000 | – |
